Experimental data from the nanobody polyreactivity screen of Harvey et al. (2022).

assay: yeast display, Sf9 membrane polyspecificity reagent, FACS + sequencing; frameworks hold sequencing errors
How it was run: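 Galactose-induced (36–48 hours) yeast carrying a synthetic nanobody display library were exposed to 10% biotinylated, detergent-solubilized Sf9 membrane reagent at 4 °C for 1 hour. FACS followed streptavidin microbead enrichment, using low and high (top ~1%) gates for expression (anti-HA) and reagent binding (streptavidin). Colony PCR, MiSeq 2 × 250 sequencing and CDR-length filtering followed. Labels for polyreactivity reflect the gate of origin.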

Sequence | polyreactivity (PSR sort gate)
QVQLVESGGGLVQAGGSLRLSCAASGSILGTYAMGWYRQAPGKERDLVAAISSSGRTSYADSVKGRFTISRDNAKNTVYLQMNSLKPEDTAVYFCNKVTSYYVFYTPYYSWGQGTQVTVSS | low polyreactivity
QVQLVESGGGLVQAGGSLRLSCAASGSTFPKNVMGWYRQAPGKERELVAAINYSGTSTYYADSVKGRFTISRDNAKNTVYLQMNSLKPEDTAVYYCAARFPLVRYNYWGQGTQVTVSS | high polyreactivity
QVQLVESGGGLVQAGGSLRLSCAASGRTFGYYAMGWYRQAPGKERELVAAITRTGGSTHYADSVKGRFTISRDNAKNTVYLQMNSLKPEDTAVYYCARDYRYTIPYDYWGQGTQVTVSS | low polyreactivity
QVQLVESGGGLVQAGGSLRLSCAASGRTFGEYVMGGYRQAPGKERELVASISRRGGSTYYADSVKGRFTLSRDNAKNTVYVLMNSQNPEDTAVYYCAKYRTQWSKNLYPYGFDYWGHGTQVTVSS | low polyreactivity
QVQLVESGGGLVQAGGSLRLSCAASGFTFQENAMGWYRQAHGKERELVAAISTSGDSTYYADSVKGRFTISRDNAKNTVYLQMNSLKPEDTAVYYCATAYEVLVACVLYDYWGKGTQVTVSS | low polyreactivity
QVQLVETGGGLVQAGGSLRLSCAASGRIFRFYDMGWYRQAPGQERELVATINPTGGSTSYADSVKGRFTISRDNAKNTVYLQMNSLNPEDTAVYYCAADSWYSVRKTWSRSGSFPFDYWGQGTQVTVSS | high polyreactivity
QVQLVESGGGLVQAGGSLRLSCAASGRTFRFYAMGWYRQAPGKERELVAAITGSGGSTYYADSVKGRFTISRDNAKNTVYLQMNSLKPEDTAVYYCAAQRQQRYYNPEHYNYWGQGTQVTVSS | low polyreactivity
QVQLLESGGGLDQAGGTLRLSWAASGIIFSFYTMGWYRQAPGKERELVAAITWSGGSTYYADSVKGRFTISRDNAKNTVYLQMNSLKPDDTAVYYCIARNPGRKRSQGYSWGQGTQVTVSS | low polyreactivity
QVQLVESGGGLVQAGGSLRLSCAASGRTVNIYAMGWYRQAAGKERELVADISYSDGSTDYADSVKGRFTISRDNAKNTVYLQMNSLKPEDTAVYYCAAYYYYYYGFGQRYYSWGQGTQVTVSS | low polyreactivity
QVQLVESGGGLVQAGGSLRLSCAASGITYGRYTMGWYRQAPGKERELVAAITNGDITDYADSVKGRFTISRDNAKNTVYLQMNSLKPEDTAVYYCAALLLYQNDHWGQGTQVTVSS | high polyreactivity
QVQLVESGGGLVQAGGSLRLSCAASGRIFQDNAMGWYRQTPGKERELVAAISRRGGSTYYADSVKGRFTISRDNAKYTVYLQMNSMKPEDTAVYYCAAKWSVEEDYWGQGTQVTVSS | high polyreactivity
QVQLVESGGCLVQAGGSLRLSCAASGSTFTSNAMGWYRQAAGKEWQFVAAISFGGGITYDADSVKGRFTISRDNAKNTVSLQMNSLKPEDTAVYYCAADGEYPHSEDFEYWGQGTQGTVSS | low polyreactivity
QVQLLESGGGLVQAGGSLRLSCAASGSTFTKYDMGWYRQAPGKERELVAAIRSGGDTNYADSVKGRFTISLDNAKNTVYLQMNSLNPEDTAVYYLAAARGPTNHTSYPWYEYDYWGQCTQVTVSS | low polyreactivity
QVQLVESGGGLVQAGGSLRLTCAASGRTFASNDMGWYRQAPGKEMELVADINNGARTYYADSVKGRFTISRDNAKNTVYLQMNSLKPEDTAVYYCAARRYGKQVRLYGYWGQGTQVTVSS | high polyreactivity
QVQLVESGGGLVQAGGSLRLSCAASGSTFRLYTKGWYRQAPGKERELVAAISVSGVSTYYADSVKGRFTISRDNAKNTVYVQMNSLKPEDTAVYYCAKRGYLFLRGSVRVGYNYWGQGTQVTVSS | low polyreactivity
QDQLVESVGGLVQAGGSLRLSCAASGLTISQNAMGWYRQAPGKERELVAAITRSGSTTHYADSVKWRFTISRDNAKNTVYLQMNSLKPEDTAVYYCAAAHSYYGHYYYWGQGTQVTVSS | high polyreactivity
QVQLVESGGGLVQAGGSLRLTCAASGFIFGTYAMGWYRLSPGKERELVAAISSGGSTYYAYSVKGRFTISRDNAKYTVYLQMNSLKPEDTAVYYCAKEGGTYRIFNYWGQGTQVTLSS | low polyreactivity
QVQLVESGGGLVQAGGSLRLSCAASGRIFKRNTMGWYRQAPGKEMELVAAITYSGITYYADSVKGRFTISRDNAKNTVYLQMNSLKPEDTAVYYCAKVLYPIGSPRFEFWGQGTQVTVSS | low polyreactivity
QVQLQESGGGLVQAGGSLRLTCAASGTISDSGLMGWYRQAAGKERELVAGISSGGITNYADSVKGRFTISRDNAKNTVYLQMNSLIPEDTAVYWGQGTQVTVSS | low polyreactivity
QVQLVESGGALVQAGGSLRLSCAASGRIFRKNAMGWYRQAPGKERELGAAISGGGGSTYYAVSVKGRFTISRDNAKNTVYLQMNSLQPEDTAVYYCNAPILPGYWGQGTQVTVSS | high polyreactivity
QVQLVESGGGLVQAVGSLRLSCAASGFIFVGYAMGWYRQAPGKERELVAAITGGGTTYYADSVKGRFTISRDNAKNSVYLQMNSLKPEETAVYYCAKDRPRKDTQRWRYGHWGQGTQVTVSS | high polyreactivity

Sequence | polyreactivity (PSR sort gate)
QVQLVESGGGLVQAGGSLRLSCAASGSIFAGYAMGWYRQAPGKERELVAAISSSGSRTYYADSVKGRFTISRDNAKNTVYLHMNSLKPEDTAVYYCATQSWVRYGQPEFDYWGQGTQVTVSS | high polyreactivity
QVQLVESGGGLVQAGGSLRLSCAASGRTFRVYAMGWYRQAPGKERELVAAISRSTGDTYYADSVKGRFTISRDNAKNSVYLLMNRLKPEDTAVYYCAADVPGGEGDYAYEYWGQGTQVTVSS | low polyreactivity
QVHLVESGVGLVQAGGSLRLSCAASGYIFPYYTMGWYRQAPGKERELVAAITIGGSTYYADSVKGRFTISRDNAKNTVYLQMNSLKPEDTAVYYCAARSRYYDTRFDYWGQGTQVTVSS | low polyreactivity
QVQLVESGGGLVQAGGSLRLICAASGRTFYSYAMAWYRQAPGQERELVAAISSGGTTYYADSVKGRFTISRDNAKNTVYLQMNSLKPEDTAVYYCATSRAWRYRSYYWGQGTQVTVSS | high polyreactivity
QVQLVESGGGLVQAGGSLRLSCAASGRIFYHYAMGWYRQAPGKERELVAASNSSGGSTHYADSVKGRFTISRDNAKNTVYLQMNSLKPEDTAVYYCAADGYWRDYSGYWDYYYIYDYWGQGTQVTVSS | low polyreactivity
QVQLVESGGGLVQAGGSLRLSCAASGSTFPHNPMGCYRQAPGKERELVAAISSIGVRTYYADSVKGRFTISRDNAKNTVYLQMNSLKPEDTAVYYCAARQSQGDRYYYWGHGTQVTVSS | high polyreactivity
QVQLVESGGGFVQAGGSLRLSCAASGSIFDQYAMGWSRQAPGKERELVAGISSSGSTYADSVKGRFTISRDNAKNTVYLQMNSLKPEDTAVYSCAKDYGVLGGGTGSDRMDYWGQGSQVTVSS | low polyreactivity
QVQLVESGGGLVQAGGSLRLSCAASGRTIDPNAMGWYRQAPGKERELVAAISRTGVRTYYADSVMGRFTISRDNAKNTVYLQMNSLKPEDTAVYYCNRYGARSNDYWGQGTQVPVSS | low polyreactivity
QVQLVESGGGLVQAGGSLRLSCAASGGTFSFNAMGWSRQAPGKEREVVAAITSDDGTNDADSVKGRFTISRDNAKNTVYLQMNSLKPEDTAVDYCAAESRFEGWGQGTQVTVSS | low polyreactivity
QVQLVESGRGLVQAGGSLSLSCAASGITFGNYAMGWYRQAPGKERELVAAITGSGGRTYYADSVKVRFTISRDNAKNTVYLQMNSLKPEDTAVYDCAAKQYTRFGYYYWGQGTQLTVSS | high polyreactivity
QVQLVESGGGLVQAGGSLRLSCAASGSIFHPNAMGWYRQAPGKERELVAAISIGGDTYYADSVKGRFTISRDNAKNTVYLQMNSLKPEDTAVYYCAVTYVGHVYEYYYWGQGTQVTVSS | low polyreactivity
QDQLVESRGGLVQAGGSLRLSCAASGSIFTVNAMGWYRQAPRKERELVASITWRSGSTYYPDSVKGRFTISRDNAKNSVYLQMNRLKPEDTAFYYCNADSDYPYYPGNFDYWGQGTQVTVSS | low polyreactivity
QVQLVESGGGLVQAGGSLRLSCAASGFTFDRNAMGWYRQAPGKERELVATISQSGTNTYYADSVKGRFTISRDNAKNTVYLQMNSLKPEDTAVYYCNARYIFYRYDYWGQGTQVTVSS | low polyreactivity
QVQLVESGGGLVQAGGSLRLSCAASGRTFDYNAMGWYRQAPGKERELVARISNGDSTYADSVKGRFTISRDNAKNTVYLQMNSLKPEDTAVYYCAARQEPGWYPDVWWEYDYWGEGTQVTVSS | low polyreactivity
QVQLVESGAGLVQAGGSLRLSCAASGRNFQYYAMVWYRQAPGKERELVAAISSGGGTYYADSVKGRFTISRDNAKNTVYLQMNSLKPEDTAVYYCAARYVYHRGFDYWGQGTQVTVSS | high polyreactivity
QVQLVESGGGLVQAGGSLRLSCAASGYTFFLNAMGWYRPAPGNERELVAVITNVGSTYYADSVKGRFTISRDNAKNTVYLQMHSLKPEDTAVYYCAAEYLAYYSGYDYWGQGTQVTVSS | high polyreactivity
QVQLVESGGGLVQAGGSLRLSCAASGRTFNSYAMGWYRPAPGKERELVATISSRGGNTFYADSVKGRFTISRDYAKNTVYLQMNRLKPEDTAVYYCAKPGYLRPSRYDYWGQGTQVTVSS | high polyreactivity
QVQLVESGGGLVQAGGSLRLSCAASGFIIGYYAMGWYRQAPGKVREFVAAISRSGGSTYYADSVKGRFTISRDNAKNTVYLQMNSLKPEDTSVYYCAADYQKTYTSKFNYWGQGTQVTVSS | high polyreactivity
QVQLVESGGGLVQAGGSLRLSCAASGSIFGRNAMGWYRQAPGKEREFVATITSRGGRTYYADSVKGRFTISRDNAKNTVYLQMNSLKPEDTAVYYCAADTYISTLKKYRLGDYWGQGTQVTVSS | low polyreactivity
QVQLVESGGRLVQAGGSLRLSCAASGRIFRRYAMGWYRQAPGKERELVAAISGSGGSTYYADSVKGRFTISRDNAKNTVYLQMNCLKPEDTAVYYCAARVGLGYDRLKSEYNYWGQGTQVTVSS | high polyreactivity
